Results taken from patent US9701748B2, “Humanized anti-CD22 antibody” (IMMUNOMEDICS, INC., priority 2014, dated 2017).
“Also recorded” adds a separate entry of the source. Where two headings read alike, the source gives them in different places.

Experiments:
[1] = tested on: RII isoform of PKA compared with the RI isoform; conditions: 2006, cited from earlier work; for isoform preference of peptide antagonists: Stokka et al.
[2] = tested on: subcutaneous Ramos Burkitt lymphoma tumors; assay: Therapeutic efficacy in mice bearing a human Burkitt lymphoma xenograft (Ramos); type: in vivo, NCr athymic nu/nu mice
Experimental: A humanized anti-human CD22 monoclonal antibody, hRFB4, was conjugated with SN-38 as described in U.S. Pat. Nos. 7,999,083 and 8,080,250 (the Examples section of each of which is incorporated herein by reference) at a drug to antibody ratio of 5.71. This antibody drug conjugate (ADC) was tested in mice bearing subcutaneous (s.c.) Ramos Burkitt lymphoma tumors. Efficacy was compared to another anti-CD22 SN-38-ADC, hLL2-SN-38.
To perform this study, 5 week-old female NCr athymic nu/nu mice were injected s.c. with Ramos cells that were harvested from tissue culture (1×10^7 cells per mouse). Once tumors reach approximately 0.2 cm^3 in size, they were divided up into treatment groups. Mice received 250 μg hRFB4-SN-38 i.p. twice weekly for two weeks. Likewise, mice received hLL2-SN-38 or a non-tumor targeting anti-CEACAM5 SN-38-ADC (hMN14-SN-38) at the same dose/schedule as the hRFB4-SN-38. Saline control mice received 100 μL i.p. injections twice weekly for two weeks. Tumors were measured and mice weighed twice weekly. Animals were euthanized for disease progression if their tumor volumes exceeded 1.0 cm^3 in size.

[3] = target: DDD of the RII form of PKA (Homo sapiens, UniProt P13861); conditions: Hundsrucker et al., 2006, cited from earlier work
DDD of the RII form of PKA, sequence (P13861 whole entry): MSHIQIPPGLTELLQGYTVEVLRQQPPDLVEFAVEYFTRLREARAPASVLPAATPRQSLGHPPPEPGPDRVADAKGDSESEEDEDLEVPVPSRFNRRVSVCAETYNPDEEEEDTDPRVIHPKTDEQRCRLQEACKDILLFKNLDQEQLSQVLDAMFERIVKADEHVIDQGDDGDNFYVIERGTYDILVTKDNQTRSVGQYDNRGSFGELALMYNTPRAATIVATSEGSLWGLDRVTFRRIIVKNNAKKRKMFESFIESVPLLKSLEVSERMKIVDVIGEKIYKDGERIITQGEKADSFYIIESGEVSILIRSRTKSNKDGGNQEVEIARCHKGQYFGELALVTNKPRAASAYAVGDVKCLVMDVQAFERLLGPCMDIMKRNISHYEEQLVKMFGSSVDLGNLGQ

[4] = tested on: B cells gated from PBMCs of healthy donors; assay: Trogocytosis: surface antigen levels on B cells after overnight treatment of PBMCs, flow cytometry; type: cell-based, human
Experimental: Peripheral blood mononuclear cells (PBMCs) obtained from healthy donors were incubated overnight (16-24 h) with 10 μg/mL of either epratuzumab or an isotype control mAb (hMN-14) and the relative levels of various antigens on the surface of the B cells were analyzed by flow cytometry. PBMCs from heparinized whole blood of normal donors were isolated by density gradient centrifugation on UNI-SEP tubes (Novamed Ltd, Israel). PBMCs were reconstituted in RPMI media supplemented with 10% heat inactivated fetal bovine serum and plated at a cell density of 1.5×10^6/mL in non-tissue culture treated 48-well plates. […] Stained cells were analyzed by flow cytometry on a FACSCALIBUR® (BD Biosciences) using Flowjo (V7.6.5) software. Initially, the lymphocyte population was gated by side vs. forward scattering, and B cells were further gated from this population with the CD19 signal. The mean fluorescence intensity (MFI), obtained with fluorochrome-conjugated antibodies to various cell surface antigens, on the gated B cells was calculated following treatment with epratuzumab, hMN-14 or without antibody. PBMCs from 16 healthy donors were assessed in various experiments.

[5] = tested on: Daudi cells; assay: Dose-response of trogocytosis of CD22 and CD19 from Daudi cells (FIG. 6A, 6B); type: cell-based, human
[6] = tested on: patients with previously untreated or relapsed hairy cell leukemia; type: in vivo, human
Experimental: Patients with previously untreated or relapsed hairy cell leukemia receive 4 doses of 40, 80, 160 or 320 mg hRFB4 injected s.c. every week or every two weeks.

[7] = tested on: patients with primary Sjögren's syndrome; type: in vivo, human
Experimental: Patients with primary Sjögren's syndrome receive 8 doses of 20, 40, 80 or 160 mg hRFB4 injected s.c. every week or every two weeks.

[8] = tested on: patients with SLE who have failed at least one previous therapy; assay: Combination therapy of SLE with hRFB4 and hLL2; type: in vivo, human; conditions: single antibody alone, same dosage and schedule
Experimental: Patients with SLE who have failed at least one previous therapy receive combination therapy with 160 mg each of hRFB4 and hLL2 (epratuzumab), administered s.c. in 2 injections weekly for four weeks. Control groups receive hRFB4 alone, hLL2 alone or irrelevant antibody (hMN-14) at the same dosage and schedule. […] All serum samples evaluated for anti-human antibodies (HAHA) are negative.

[9] = tested on: rheumatoid arthritis patients who have failed at least one TNFα inhibitor; type: in vivo, human
Experimental: Patients who have failed therapy with at least one TNFα inhibitor receive 4 doses of 40, 80, 160 or 320 mg hRFB4 injected s.c. every week or every two weeks. The antibody is either administered alone or in conjunction with oral methotrexate (10-25 mg/week).

[10] = target: T1, CD22 (Homo sapiens, UniProt P20273); assay: Binding affinity for CD22+ Daudi cells determined by ELISA (FIG. 2)
T1 construct: endogenous in cells; host or cells: Daudi (Burkitt lymphoma) cells
Experimental: FIG. 2. Comparative binding affinity for CD22+ Daudi cells of hLL2 IgG, hRFB4 IgG, chimeric RFB4 conjugated to AD2 peptide, and hMN-14 IgG, as determined by ELISA. The binding affinity of hRFB4 as determined for Daudi cells is about 10-fold higher than that of hLL2 and about 30% higher than the chimeric RFB4.
The hRFB4 antibody was prepared as described above, resulting in a humanized anti-CD22 antibody with variable region sequences as shown in FIG. 1A and FIG. 1B (SEQ ID NO:7 and SEQ ID NO:8). After expression, the binding affinity or CD22+ Daudi cells was compared to that of the hLL2 antibody, comprising the same FR and constant region sequences but different CDR sequences, and to the chimeric RFB4 antibody, comprising the same CDR sequences but different FR and constant region sequences.

[11] = tested on: patients with moderately active SLE; assay: Open-label study of hRFB4 in systemic lupus erythematosus; type: in vivo, human
Experimental: An open-label, single-center study of patients with moderately active SLE (total British Isles Lupus Assessment Group (BILAG) score 6 to 12) is conducted. Patients receive dosages of hRFB4 of 50, 100, 200, and 400 mg subcutaneously (SC) every week for 6 weeks. Evaluations include safety, SLE activity (BILAG), blood levels of B and T cells, human anti-RFB4 antibody (HAHA) titers, and levels of cell surface CD19, CD20, CD21, CD22 and CD79b on B cells. It is determined that a dosage of 50-100 mg per SC injection results in optimal depletion of B cell CD19, while producing less than 50% depletion of normal B cells. Subsequently, a subcutaneous dose of 100 mg hRFB4 is administered to a new group of patients with moderately active SLE.

LEQYANQLADQIIKEATE [RIAD]
isoform preference of peptide antagonists [1]: higher affinity for RI

hLL2-SN-38
survival compared with hMN14-SN-38 control group ([2]; 250 μg i.p. twice weekly for two weeks): no significant difference
mice tumor free when the study ended ([2]; day 87, 250 μg i.p. twice weekly for two weeks): 1 of 6
survival compared with saline control ([2]; log-rank test, P=0.0012): significantly better than saline control

hMN14-SN-38: non-tumor targeting anti-CEACAM5 SN-38-ADC
median survival time (MST) ([2]; 250 μg i.p. twice weekly for two weeks, days post-therapy initiation, death = tumor exceeding 1.0 cm^3): 5 days

PEDAELVRLSKRDVENAVLKAVQQY [AKAP7δ-L308D-pep]
affinity for the RII DDD sequence [3]: particularly high affinities

DLIEEAASRIVDAVIEQVKAAGAY [Ht-31]
isoform preference of peptide antagonists [1]: greater affinity for the RII isoform of PKA

PEDAELVRLSKRLVENAVLKAVQQY [AKAP7δ-wt-pep]
affinity for the RII DDD sequence [3]: particularly high affinities

hMN-14: anti-CEACAM5 antibody used as isotype control [reference compound]
effect on levels of the tested surface proteins ([4]; isotype control mAb, 10 μg/mL, overnight): did not affect the levels of any of the tested proteins

QIEYLAKQIVDNAIQQA [AKAP-IS]
Kd ([3]; Alto et al., 2003, read-out: binding constant for DDD): 400 pM
affinity for the RII DDD sequence [3]: particularly high affinities

FEELAWKIAKMIWSDVFQQC [PV-38]
isoform preference of peptide antagonists [1]: higher affinity for RI

PEDAELVRTSKRLVENAVLKAVQQY [AKAP7δ-L304T-pep]
affinity for the RII DDD sequence [3]: particularly high affinities

QIEYVAKQIVDYAIHQA [SuperAKAP-IS]
selectivity for the RII isoform of PKA compared with the RI isoform ([1]; Gold et al.): five order of magnitude higher selectivity

B1: hRFB4: humanized anti-CD22 antibody with variable region sequences SEQ ID NO:7 and SEQ ID NO:8 (antibody, V domains shown)
VH: QVQLVQSGAEVKKPGSSVKVSCKASGFTFSIYDMSWVRQAPGQGLEWVAYISSGGGTTYYPDTVKGRFTITADESTNTAYMELSSLRSEDTAFYFCARHSGYGSSYGVLFAYWGQGTLVTVSS
VL: DIQLTQSPSSLSASVGDRVTISCRASQDISNYLNWYQQKPGKAPKLLIYYTSILHSGVPSRFSGSGSGTDYTFTISSLQPEDIATYYCQQGNTLPWTFGGGTKVQIKR
minimal concentration to induce the maximal level of trogocytosis of CD19 ([5]; CD19 from Daudi cell, FIG. 6B): 1 ng/mL
minimal concentration to induce the maximal level of trogocytosis of CD22 ([5]; CD22 from Daudi cell, FIG. 6A): 1 ng/mL
concentration inducing the maximal level of trogocytosis of CD19 and CD22 ([5]; dose-response curve, FIG. 6A and 6B): 1 ng/mL
depletion of B cell surface levels of CD19, CD20, CD21, CD22 and CD79b ([6]; 40 mg): moderate level
depletion of B cell surface levels of CD19, CD20, CD21, CD22 and CD79b ([6]; 80 mg): much higher level
B-cell depletion ([6]; all dosage levels): Transient B-cell depletion
objective responses (mostly partial responses) ([6]; dose of 80 mg): 30%
human anti-hRFB4 antibody (HAHA) in serum samples ([6]; in vivo): negative
release pattern of s.c. antibody ([6]; in vivo, sc): slow release pattern over several days
optimum dosage ([6]; six months after treatment): 80 mg
median corticosteroid after treatment ([7]; 80 mg group, six months after treatment, decrease from 17.5 mg/day): 8.3 mg/day
B-cell depletion ([7]; all dosage levels): Transient B-cell depletion
human anti-hRFB4 antibody (HAHA) in serum samples ([7]; in vivo): negative
objective responses ([7]; s.c., all dose levels): observed at all dose levels
trogocytosis (MFI of CD22, CD19, CD21, CD79b on B cells) compared with hLL2 ([4]; overnight treatment of PBMCs, FIG. 4A-4D): more efficacious than the hLL2 antibody; also recorded: as capable of mediating trogocytosis as hLL2
objective responses [8]: Objective responses are observed
depletion of B cell surface levels of CD19, CD20, CD21, CD22 and CD79b ([9]; 80 mg): moderate level
depletion of B cell surface levels of CD19, CD20, CD21, CD22 and CD79b ([9]; 160 mg): much higher level
B-cell depletion ([9]; all dosage levels): Transient B-cell depletion
human anti-hRFB4 antibody (HAHA) in serum samples ([9]; in vivo): negative
release pattern of s.c. antibody ([9]; in vivo, sc): slow release pattern over several days
objective responses ([9]; s.c., all dose levels): observed at all dose levels
optimum dosage ([9]; six months after treatment): 160 mg
Kd ([10]; CD22+ Daudi cells, FIG. 2): 200 pM
binding affinity, higher than the chimeric RFB4 ([10]; Daudi cells, versus chimeric RFB4 conjugated to AD2 peptide): about 30%
patients with BILAG decreases continuing to at least 18 weeks ([11]; 100 mg SC): 92%
decrease of total BILAG scores ([11]; 100 mg SC, all patients): at least 50%
depletion of normal B cells ([11]; 50-100 mg per SC injection, weekly for 6 weeks): less than 50%
immunogenicity ([11]; SLE patients): no evidence of immunogenicity
tolerability ([11]; SLE patients): well tolerated
patients with improvement in at least one BILAG B- or C-level disease activity ([11]; at 6, 10 and 18 weeks): 93%
average decrease of B-cell levels ([11]; at 18 weeks): 35%
patients with multiple BILAG B involvement at baseline who completely resolved all B-level disease activities ([11]; by 18 weeks): 3 patients
